1 substance from publication PMC1762419 can be followed below.

The assay addresses endogenous Maf1 (human (endogenous in HeLa)) (UniProt Q9H063). In words: co-IP; HeLa (cell line 9-8) whole cell extract, immunoprecipitation with anti-Maf1 or anti-GAPDH antibodies; immunoblot with anti-RPC1, anti-Brf1, anti-Maf1. (In general: In western blotting, separated proteins are transferred to a membrane and probed.)

Chain of endogenous Maf1 (human (endogenous in HeLa)) (Q9H063 whole entry): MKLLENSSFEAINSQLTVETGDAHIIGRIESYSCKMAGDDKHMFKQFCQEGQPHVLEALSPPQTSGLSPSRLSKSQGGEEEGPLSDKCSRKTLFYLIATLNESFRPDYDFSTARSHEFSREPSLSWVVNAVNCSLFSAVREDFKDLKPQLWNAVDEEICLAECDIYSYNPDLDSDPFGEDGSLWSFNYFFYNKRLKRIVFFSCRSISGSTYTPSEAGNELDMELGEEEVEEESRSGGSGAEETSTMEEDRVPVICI

Consider “RPC1, the largest subunit of pol III (endogenous, HeLa) (from UniProt O14802 1-1390) (natural protein)”, for which the percent of RPC1 co-immunoprecipitated was found to be 6%.
